# Results as given in US20170056486A1 (IMMATICS BIOTECHNOLOGIES, published 2017).
# B1: DDX5-001 (YLLPAIVHI from DDX5) (peptide)
# peptide: YLLPAIVHI
# notes: negative control peptide of the T-cell stimulations; also called 419
# Biological target: T1, HLA-A*02 (human)
# T1 construct: Peptide-receptive MHC monomer made by UV cleavage of a UV-sensitive ligand and captured on streptavidin plates; also called HLA-A*02 MHC class I molecule; peptide-receptive MHC
# Experiment: UV-exchange ELISA (anti-b2m); yield >=75%
# Description: (§1) Candidate peptides for T cell based therapies according to the present invention were further tested for their MHC binding capacity (affinity). The individual peptide-MHC complexes were produced by UV-ligand exchange, where a UV-sensitive peptide is cleaved upon UV-irradiation, and exchanged with the peptide of interest as analyzed. Only peptide candidates that can effectively bind and stabilize the peptide-receptive MHC molecules prevent dissociation of the MHC complexes. To determine the yield of the exchange reaction, an ELISA was performed based on the detection of the light chain (β2m) of stabilized MHC complexes. The assay was performed as generally described in Rodenko et al. (Rodenko et al., 2006).
# (§2) 96 well MAXISorp plates (NUNC) were coated over night with 2 ug/ml streptavidin in PBS at room temperature, washed 4× and blocked for 1 h at 37° C. in 2% BSA containing blocking buffer. […] Peptide-MHC monomers of the UV-exchange reaction were diluted 100 fold in blocking buffer. Samples were incubated for 1 h at 37° C., washed four times, incubated with 2 ug/ml HRP conjugated anti-β2m for 1 h at 37° C., washed again and detected with TMB solution that is stopped with […]. Absorption was measured at 450 nm.
row,Binder,peptide exchange yield [%]
1,MLSDLTLQL,≥ 75
2,ALSDETKNNWEV,≥ 75
3,KLYGIEIEV,≥ 75
4,SLYHRVLLY,≥ 75
5,SLVPLQILL,≥ 75
6,AIFDFCPSV,≥ 75

# Biological target: T1, HLA-A*02
# Experiment: UV-exchange ELISA (anti-b2m); yield 20%-49%
# Description: as §1, §2
row,Binder,peptide exchange yield [%]
1,VLFLGKLLV,20 to 49
2,GVIETVTSL,20 to 49
3,IQADDFRTL,20 to 49
4,GLLWQIIKV,20 to 49
5,VLLAAGPSAA,20 to 49
6,KILDLTRVL,20 to 49
7,SVDSAPAAV,20 to 49
8,LLDHLSFINKI,20 to 49
9,VLGPGPPPL,20 to 49
10,ALDDSLTSL,20 to 49
11,ILDETLENV,20 to 49
12,FLIDTSASM,20 to 49
13,HLYNNEEQV,20 to 49
14,VLISSTVRL,20 to 49
15,TLDHKPVTV,20 to 49
16,IASAIVNEL,20 to 49
17,GLSSSSYEL,20 to 49
18,VLLRVLIL,20 to 49
19,GLMDGSPHFL,20 to 49
20,FAWEPSFRDQV,20 to 49
21,LLYDGKLSSA,20 to 49
22,HLPDFVKQL,20 to 49
23,LLRGPPVARA,20 to 49
24,EYALLYHTL,20 to 49
25,SVAKTILKR,20 to 49
26,YVLPKLYVKL,20 to 49
27,GLIYEETRGV,20 to 49
28,RLLPKVQEV (also called ZNF-003),20 to 49

# Biological target: T2, HLA-A*02:01 (human)
# T2 construct: MHC class I molecule without the peptide
# Experiment: biotinylated peptide-MHC complex used as negative control in T-cell priming
# Method: 800.000 beads/200 μl were coated in 96-well plates in the presence of 4×12.5 ng different biotin-pMHC, washed and 600 ng biotin anti-CD28 were added subsequently in a volume of 200 μl. Stimulations were initiated in 96-well plates by co-incubating 1×10⁶ CD8+ T cells with 2×10⁵ washed coated beads in 200 μl TCM supplemented with 5 ng/ml IL-12 (PromoCell) for 3 days at 37° C. Half of the medium was then exchanged by fresh TCM supplemented with 80 U/ml IL-2 and incubating was continued for 4 days at 37° C. This stimulation cycle was performed for a total of three times. For the pMHC multimer readout using 8 different pMHC molecules per condition, a two-dimensional combinatorial coding approach was used as previously described (Andersen et al., 2012) with minor modifications encompassing coupling to 5 different fluorochromes. […] For analysis, a BD LSRII SORP cytometer equipped with appropriate lasers and filters was used. Peptide specific cells were calculated as percentage of total CD8+ cells. Evaluation of multimeric analysis was done using the FlowJo software (Tree Star, Oregon, USA). In vitro priming of specific multimer+ CD8+ lymphocytes was detected by comparing to negative control stimulations.
row,Binder,binding result
1,B1,binds

# Biological target: T1, HLA-A*02
# Experiment: UV-exchange ELISA (anti-b2m); yield <20%
# Description: as §1, §2
row,Binder,peptide exchange yield [%]
1,GAVAEEVLSSI,< 20
2,TLSSERDFAL,< 20
3,SSLEPQIQPV,< 20
4,AQTVVVIKA,< 20
